Publication PMC5586252, “PP2A-B′ holoenzyme substrate recognition, regulation and role in cytokinesis” (Cell Discovery, 2017)

Tested on: GST-B′γ1
Test: Titration pull-down of Cyk4 / pCyk4 by immobilized GST-B′γ1
Format: binding
Settings: 10 μg immobilized GST-B′γ1
Procedure: Next, we thoroughly examined Cyk4 phosphorylation sites by MS and the effect of each phosphorylation on B′ binding. […] Upon phosphorylation in vitro by Plk1, the interaction can be detected with Cyk4 concentration as low as 0.6 μM and the half maximum binding can be obtained with the concentration of pCyk4 (1–177) between 2.5 and 5 μM (Figure 4d). […] No unphosphorylated CyK4 is detected (Figure 4e, left panel). The most abundant species are 2pCyk4 and 3pCyk4 that correspond to bis- and tris-phosphorylated proteoforms, respectively (Figure 4e, left panel). Further tandem MS with collision-induced dissociation (CID) and electron capture dissociation (ECD) of 4pCyk4 pinpointed the four sites that are phosphorylated, S149, S157, S164 and S170 (Figure 4e, right panel). Phosphorylation at these four sites was previously reported collectively, but not simultaneously, in different studies. […] As 5pCyk4 represents a minor species of the pCyk4 (Figure 4e, left panel), we concluded that the increase of binding affinity between B′ and pCyk4 is largely contributed by phosphorylation at S149. […] These collectively confirmed that pCyk4 interacts with PP2A-B′ holoenzymes via the identified B′-binding motif that is responsive to primarily the Plk1 phosphorylation site at S149.
Approximately 10 μg of GST-tagged B′-binding motifs or GST-pCyk4 was bound to 10 μl of glutathione resin via GST tag. […]

B1: Cyk4 (1–177): Cyk4 construct (residue 1–177) containing the coiled-coil domain and a portion of the disordered region (protein, UniProt Q9H0H5 1-177, looked up, fragment)
chain: MDTMMLNVRNLFEQLVRRVEILSEGNEVQFIQLAKDFEDFRKKWQRTDHELGKYKDLLMKAETERSALDVKLKHARNQVDVEIKRRQRAEADCEKLERQIQLIREMLMCDTSGSIQLSEEQKSALAFLNRGQPSSSNAGNKRLSTIDESGSILSDISFDKTDESLDWDSSLVKTFKL
concentration at which interaction with GST-B′γ1 can be detected: ≥ 20 µM

B2: pCyk4 (1–177): Cyk4 (1–177) phosphorylated in vitro by Plk1 (protein)
chain: GSMDTMMLNVRNLFEQLVRRVEILSEGNEVQFIQLAKDFEDFRKKWQRTDHELGKYKDLLMKAETERSALDVKLKHARNQVDVEIKRRQRAEADCEKLERQIQLIREMLMCDTSGSIQLSEEQKSALAFLNRGQPSSSNAGNKRLSTIDESGSILSDISFDKTDESLDWDSSLVKTFKL
modifications: phosphorylated by Plk1: mono- to pentakis-phosphorylated forms, no unphosphorylated form; sites of the tetrakis form S149, S157, S164 and S170; left off: GST, N-terminal, cleaved
notes: Cyk4 (1–177) phosphorylated in vitro by Plk1
concentration at which interaction with GST-B′γ1 can be detected: 0.6 µM
